In publication PMC11794253:

What was measured:
[1] = target: His-tagged FcγRIIIa/CD16a extracellular domain (amino acids 17-208), V158 allotype (UniProt P08637); assay: SPR
[2] = target: human neonatal Fc receptor (hFcRn) (human) (UniProt P55899); assay: SPR
Sequence of UniProt P55899 (P55899 24-297, chain 1 of 2): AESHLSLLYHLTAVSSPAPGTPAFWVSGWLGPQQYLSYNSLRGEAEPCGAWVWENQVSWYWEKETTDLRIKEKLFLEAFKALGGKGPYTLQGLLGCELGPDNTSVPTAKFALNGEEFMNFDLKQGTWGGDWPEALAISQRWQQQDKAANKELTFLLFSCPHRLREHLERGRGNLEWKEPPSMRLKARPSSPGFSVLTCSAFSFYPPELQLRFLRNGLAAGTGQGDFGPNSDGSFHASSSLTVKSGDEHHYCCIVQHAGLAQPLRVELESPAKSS
Sequence of UniProt P55899 (P61769 21-119, chain 2 of 2, further chain): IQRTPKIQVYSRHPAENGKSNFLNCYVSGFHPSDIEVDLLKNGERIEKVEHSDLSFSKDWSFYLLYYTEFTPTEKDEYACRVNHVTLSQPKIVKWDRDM

Sequence of UniProt P08637 (P08637 17-208 F176V): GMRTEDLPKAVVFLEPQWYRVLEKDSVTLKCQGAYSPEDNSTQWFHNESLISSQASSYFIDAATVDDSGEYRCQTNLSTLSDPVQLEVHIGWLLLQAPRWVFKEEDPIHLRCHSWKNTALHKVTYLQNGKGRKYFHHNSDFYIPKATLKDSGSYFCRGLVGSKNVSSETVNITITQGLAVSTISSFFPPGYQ

B1: COVA2-15 IgG1, wild type, produced in N. benthamiana ΔXT/FT (antibody, V domains shown)
VH: QVQLLESGGGLVQPGGSLRLSCAASGFTFSSYAMSWVRQAPGKGLEWASAISGSGGSTYYADSVEGRFTISRDNSKNTLYLQMNSLRAEDTAVYYCAKDTGYCGDDCYIKLIRGGPDYWGQGTLVTVSS
VL: DIVMTQSPLSLPVTLGQPASISCRSSQSLVYSDGNTFLNWFQQRPGQSPRRLIYQVSNRDSGVPDRFSGSGSGTDFTLKISRVEAEDVGVYYCMQGTHWPRTFGQGTKLEIK
Work on B1 yielded a kon [1] of 306000 M⁻¹ s⁻¹, a Kd ([1]; from kinetic rate constants) of 0.127 µM and a Kd ([1]; steady-state analysis) of 0.259 µM. The kon [2] was 389000 M⁻¹ s⁻¹, the Kd ([2]; KD from steady-state analysis) was 0.344 µM and the Kd ([2]; kinetic 1:1 binding model fit) was 0.196 µM.
